Assay results published in publication PMC4568413, “Functional analysis of the sporulation-specific diadenylate cyclase CdaS in Bacillus thuringiensis” (Frontiers in Microbiology, 2015).

Molecular target: the molecule itself
Experiment: SEC; Superdex 200HR 10/30; about 10 mg/mL CdaS loaded (1 mL); 25 mM Tris-HCl pH 8.0, 150 mM NaCl; 0.5 mL/min; calibrated with Bio-Rad protein standards

B1: CdaS protein from Bacillus thuringiensis BMB171 (enzyme, UniProt D5TM67 1-201, looked up)
chain: MHEWGLSEELKIQTKQMIEIAEKELSIMRNAIDKEDECILCKMEDIHHMLANVQTLAATYYIQAYLSPYTESSSFITTAIQHLSARKHGALIVVERNETLEALIQTGTTLNAHLTAPLLESIFYPGNPLHDGAVLVKNNHIVSAANILPLTKSTEVDPELGTRHRAAIGLSEKSDALILVVSEETGRTSFALNGILYTISL
notes: CdaS (cyclic di-AMP synthase, sporulation-specific; N-terminal YojJ domain and C-terminal DAC domain) of Bacillus thuringiensis BMB171; full length, the truncated constructs end at residue 201; cdaS gene 606 bp; theoretical monomer mass 23.3 kDa; Cloned in NcoI and XhoI sites of pET28b; also called B. thuringiensis CdaS; wild type CdaS; source: E. coli BL21(DE3) harboring pET28b-cdaS, purified …
Q: For B1, which “stoichiometry N” value is on record?
A: Its value is 6.
